Legend:
[1] = substrate: O=[N+]([O-])c1ccc(O[C@@H]2OC[C@@H](O)[C@H](O)[C@H]2O)cc1; assay: 4-nitrophenolate release, A410; format: biochemical, Bacteroides ovatus; conditions: 37 °C, 50 mM buffer at or near pH optimum (6.0-7.0)
[2] = substrate: O=[N+]([O-])c1ccc(O[C@@H]2O[C@@H](CO)[C@H](O)[C@H]2O)cc1; assay: 4-nitrophenolate release, A410; format: biochemical, Bacteroides ovatus; conditions: 37 °C, 50 mM buffer at or near pH optimum (6.0-7.0)
[3] = substrate: O=[N+]([O-])c1ccc(O[C@H]2O[C@H](CO)[C@@H](O)[C@H](O)[C@H]2O)cc1; assay: purified protein; conditions: 37 °C, 50 mM buffer at or near pH optimum (6.0-7.0)
[4] = substrate: OC[C@H]1O[C@@H](O[C@H]2[C@@H](OC[C@H]3O[C@@H](O[C@H]4[C@H](O)[C@@H](O)[C@H](O[C@H]5[C@H](O)[C@@H](O)C(O)O[C@@H]5CO)O[C@@H]4CO[C@H]4OC[C@@H](O)[C@H](O)[C@H]4O[C@@H]4O[C@H](CO)[C@H](O)[C@H](O)[C@H]4O)[C@H](O)[C@@H](O)[C@@H]3O[C@@H]3O[C@H](CO[C@H]4OC[C@@H](O)[C@H](O)[C@H]4O)[C@@H](O)[C@H](O)[C@H]3O)OC[C@@H](O)[C@@H]2O)[C@H](O)[C@@H](O)[C@H]1O; assay: HPLC; format: biochemical, Bacteroides ovatus; conditions: 37 °C, 50 mM buffer at or near pH optimum (6.0-7.0)
[5] = substrate: O=[N+]([O-])c1ccc(O[C@H]2OC[C@@H](O)[C@H](O)[C@H]2O)cc1; assay: 4-nitrophenolate release, A410; format: biochemical, Bacteroides ovatus; conditions: 37 °C, 50 mM buffer at or near pH optimum (6.0-7.0)
[6] = substrate: O=[N+]([O-])c1ccc(O[C@@H]2O[C@H](CO)[C@@H](O)[C@H](O)[C@H]2O)cc1; assay: purified protein; conditions: 37 °C, 50 mM buffer at or near pH optimum (6.0-7.0)
[7] = substrate: O=[N+]([O-])c1ccc(O[C@@H]2O[C@H](CO)[C@@H](O[C@@H]3O[C@H](CO)[C@@H](O[C@@H]4O[C@H](CO)[C@@H](O[C@@H]5O[C@H](CO)[C@@H](O)[C@H](O)[C@H]5O)[C@H](O)[C@H]4O)[C@H](O)[C@H]3O)[C@H](O)[C@H]2O)c(Cl)c1; assay: 2-chloro-4-nitrophenolate release, A405, continuous; format: biochemical, Bacteroides ovatus; conditions: 37 °C, 50 mM buffer at or near pH optimum (6.0-7.0)
[8] = substrate: O=[N+]([O-])c1ccc(O[C@@H]2O[C@H](CO)[C@@H](O[C@@H]3O[C@H](CO[C@H]4OC[C@@H](O)[C@H](O)[C@H]4O)[C@@H](O[C@@H]4O[C@H](CO[C@H]5OC[C@@H](O)[C@H](O)[C@H]5O)[C@@H](O[C@@H]5O[C@H](CO[C@H]6OC[C@@H](O)[C@H](O)[C@H]6O)[C@@H](O)[C@H](O)[C@H]5O)[C@H](O)[C@H]4O)[C@H](O)[C@H]3O)[C@H](O)[C@H]2O)c(Cl)c1; assay: as above; format: biochemical, Bacteroides ovatus; conditions: 37 °C, 50 mM buffer at or near pH optimum (6.0-7.0)
[9] = substrate: O=[N+]([O-])c1ccc(O[C@@H]2O[C@@H](CO)[C@H](O)[C@H]2O)cc1; assay: continuous 4-nitrophenolate release; format: biochemical, Bacteroides ovatus; conditions: 37 °C, pH 7.0
[10] = substrate: O=[N+]([O-])c1ccc(O[C@@H]2O[C@H](CO)[C@H](O)[C@H](O)[C@H]2O)cc1; assay: purified protein; conditions: 37 °C, 50 mM buffer at or near pH optimum (6.0-7.0)

B1: BoGH43A (Bacteroides ovatus ATCC 8483) (protein)
chain: QGYSNPVIPGFHPDPSVCKAGDDYYLVNSSFQYFPGVPLFHSKDLVHWEQIGNCLTRPSQLDLTNANSGSGIFAPTIRYNDGVFYMITTNVSGKGNFLVHTTDPRSEWSEPVWLEQGGIDPSLYFEDGKCFMVSNPDGYINLCEIDPMTGKQLSSSKRIWNGTGGRYAEGPHIYKKDGWYYLLISEGGTELGHKVTIARSRYIDGPYQGNPANPILTHANESGQSSPIQGTGHADLVEGTDGSWWMVCLAYRIMPGTHHTLGRETYLAPVRWDKDAWPVVNSNGTISLKMDVPTLPQQEMKGRPERIDFKEGKLSPEWIHLQNPEAKNYIFTKDGKLRLIATPVTLSDWKSPTFVALRQEHFDMEASAPVVLQKAGVNDEAGISVFMEFHSHYDLFVRQDKDRKRSVGLRYKLGEITHYAKEVSLPTDGEVELVVKSDINYYYFGYKVNGIYHDLGKMNTRYLSTETAGGFTGVVLGLYITSASKDSKAYADFEYFKYKGKPGENK
Protein B1 has a Km [1] of 6580 ± 210 µM, a kcat [1] of 0.26 ± 0.005 s⁻¹ and a kcat/Km [1] of 39 M⁻¹ s⁻¹. The Km [2] was 710 ± 30 µM, the kcat [2] was 0.057 ± 0.001 s⁻¹ and the kcat/Km [2] was 81 M⁻¹ s⁻¹.

B2: BoGH31A (Bacteroides ovatus ATCC 8483) (protein)
chain: SNKVYEKTGDSVIVKVQHKETGGPRLVRLQVMGDKLIHVSATADSKFADPQSLIVVPQKKQTSFAVVQNGDTITVSTEEVKASVLASTGEVWFTDKNGELILQENKGGGKTFTPIEVEGTKGYTVCQVFESPEDEAFYGLGQHQADEFNYKGKNEELFQYNTKVSVPFVVSNKNYGILLDSYSFCRFGNPNDYSQLNRIFKLYDKTGQEGALTGTYVPKKGETLVRREDSIYFENLKTIENLPKKLPLMGAKVTYEGEIEPAQTGEFKFILYYAGYVKVYLNNEPVVPERWRTAWNPNSYKFAAHLEAGKRVPLKIEWQPDGGQSYCGLRALTPVNPEEQGKQSWWSEMTKQLDYYFMAGENMDDVISGYRSLTGKSPVMPKWAMGFWQSREKYNTQEEMLGALKGFRDRKIPLDNIVLDWNHWPENAWGSHEFDKARFPDPKAMVDSIHAMHARMMISVWPKFYVTTEHFKEFDENGWMYQQSVKDSLKDWVGPGYHYGFYDAYDPDARKLFWKQMYEHYYPLGIDAWWMDASEPNVRDCTDLEYRKALCGPTALGSSTEFFNAYALMNAEAIYDGQRGVDNNKRVFLLTRSGFAGLQRYSTATWSGDIGTRWEDMKAQISAGLNFAMSGIPYWTMDIGGFCVENRYVAGQKQWNATKTENADYKEWRELNTRWYQFGAFVPLYRAHGQYPFREIWEIAPEGHPAYQSVVYYTKLRYNMMPYIYSLAGMTWFDDYTIMRPLVMDFTADAEVNDIGDQFMFGPSFMVSPVYRYGDRSREIYFPQAEGWYDFYSGKFQAGGERKVIEAPYERIPLYVRAGAIIPFGDDIQYTDEKPAEHIRLYIYQGADGEFTLYEDEGVNYNYEQGMYAMIPMKYDEATKTLVIGERQGEFPGMLKERTFTVVTVNKEKAQPFDLNAKGVTVKYNGSEQTLKL
B2 gave a Km [3] of 31800 ± 5100 µM, a kcat [3] of 0.071 s⁻¹ and a kcat/Km [3] of 2.2 M⁻¹ s⁻¹. It also gave a Km [4] of 378 ± 75 µM, a kcat [4] of 31 ± 1.9 s⁻¹ and a kcat/Km [4] of 82000 M⁻¹ s⁻¹. The Km [5] was 7700 ± 273 µM, the kcat [5] was 1.6 ± 0.031 s⁻¹ and the kcat/Km [5] was 210 M⁻¹ s⁻¹.

B3: BoGH3B (Bacteroides ovatus ATCC 8483) (protein)
chain: QTASPVIPTDPAIETHIREWLQKMTLEQKIGQMCEITIDVVSDLETSRKKGFCLSEAMLDTVIGKYKVGSLLNVPLGVAQKKEKWAEAIKQIQEKSMKEIGIPCIYGVDQIHGTTYTLDGTMFPQGINMGATFNRELTRRGAKISAYETKAGCIPWTFAPVVDLGRDPRWARMWENYGEDCYVNAEMGVSAVKGFQGEDPNRIGEYNVAACMKHYMGYGVPVSGKDRTPSSISRSDMREKHFAPFLAAVRQGALSVMVNSGVDNGLPFHANRELLTEWLKEDLNWDGLIVTDWADINNLCTRDHIAATKKEAVKIVINAGIDMSMVPYEVSFCDYLKELVEEGEVSMERIDDAVARVLRLKYRLGLFDHPYWDIKKYDKFGSKEFAAVALQAAEESEVLLKNDGNILPIAKGKKILLTGPNANSMRCLNGGWSYSWQGHVADEYAQAYHTIYEALCEKYGKENIIYEPGVTYASYKNDNWWEENKPETEKPVAAAAQADIIITCIGENSYCETPGNLTDLTLSENQRNLVKALAATGKPIVLVLNQGRPRIINDIVPLAKAVVNIMLPSNYGGDALANLLAGDANFSGKMPFTYPRLINALATYDYKPCENMGQMGGNYNYDSVMDIQWPFGFGLSYTNYKYSNLKVNKPTFNADDELIFTVDVTNTGKVAGKESVLLFSKDLVASSTPDNIRLRNFEKVSLEPGETKTVTLKLKGSDLAFVGYDGKWRLEKGDFKIKCGDQWMDIVCDQTKVWNTPNKNTLHK
B3 showed a Km [6] of 155 ± 39 µM, a kcat [6] of 1.74 s⁻¹ and a kcat/Km [6] of 11200 M⁻¹ s⁻¹.

B4: BoGH5A (Bacteroides ovatus ATCC 8483) (protein)
chain: SNSDEKGGSLEVAQEYRNLEFDARGSRQTIQIDGPAEWHISTSESWCKSSHTIGEGKQYVNITVEANDTQKERTATVTVSASGAPDIIINVKQSLYSVPAYDEYIAPDNTGMRDLTSMQLSALMKAGVNVGNTFEAVIVGNDGSLSGDETCWGNPTPNKVLFEGIKAAGFDVVRIPVAYSHQFEDAATYKIKSAWMDKVEAAVKAALDAGLYVIINIHWEGGWLNHPVDANKEALDERLEAMWKQIALRFRDYDDRLLFAGTNEVNNDDANGAQPTEENYRVQNGFNQVFVNTVRATGGRNHYRHLIVQAYNTDVAKAVAHFTMPLDIVQNRIFLECHYYDPYDFTIMPNDENFKSQWGAAFAGGDVSATGQEGDIEATLSSLNVFINNNVPVIIGEYGPTLRDQLTGEALENHLKSRNDYIEYVVKTCVKNKLVPLYWDAGYTEKLFDRTTGQPHNAASIAAIMKGLN
B4 gave a Km [7] of 3590 ± 1270 µM, a kcat [7] of 0.12 ± 0.025 s⁻¹ and a kcat/Km [7] of 34 M⁻¹ s⁻¹. For the same protein, the Km [8] was 36 ± 2.7 µM, the kcat [8] was 10.5 ± 0.14 s⁻¹ and the kcat/Km [8] was 292000 M⁻¹ s⁻¹.

B5: BoGH43B (Bacteroides ovatus ATCC 8483) (protein)
chain: QKTFRNPIITGMNPDPSICRVGDDFYLVTSTFEYFPGLPVYHSKDLVHWKLIGHALSRPENNPLMGCNASTGGQYAPTLRYHDGTFYVIGTNYGGKGSQGVFYVTAKNPAGPWSDPVWVGNWYVDPSIEFIDGKMYFLSPDNQGSFLLGVMDPETGTFVEALRKVASGLGGSSPEGPHFYKIGDYYYIMSAEGGTGYEHREVIQRSKSPWGPYEPSPVNPVLSNMNCPDHPFQAIGHADLVQLKDGSWWAVCLGIRPVNGKYQHLGRETFLAPVTWDADGWPKVGKDGVVQETYLFPNLPSHVWMEQPVRDDFDQETLGLDWTFIRNPAHSFWSLTEKPGSLRLKGTAINFTTNDSPSFIGRRQAAFNLTASAKVNFIPKVENEEAGLVVRADDKNHYDLLITERNGQRVAMIRKTLKDKVVDTTCKELPATGEVILSITATETTYTFEIKAAHVSAILGTASTRDVSNEVVGGFTGVFIGMYASGNGQANTNPADFDWFDFRCLD
Protein B5 has a Km [9] of 6600 ± 2300 µM, a kcat [9] of 0.0005 ± 8.1e-05 s⁻¹ and a kcat/Km [9] of 0.076 M⁻¹ s⁻¹.

B6: BoGH2A (Bacteroides ovatus ATCC 8483) (protein)
chain: LALGGCLMLLGACSSSSLVSPRERSDFNADWRFHLGDGLQAAQPGFADNDWRVLDLPHDWAIEGDFSQENPSGTGGGALPGGVGWYRKTFSVDKADAGKIFRIEFDGVYMNSEVFINGVSLGVRPYGYISFSYDLTPYLKWDEPNVLAVRVDNAEQPNSRWYSGCGIYRNVWLSKTGPIHVGGWGTYVTTSSVDEKQAVLNLATTLVNESDTNENVTVCSSLQDAEGREVAETRSSGEAEAGKEVVFTQQLTVKQPQLWDIDTPYLYTLVTKVMRNEECMDRYTTPVGIRTFSLDARKGFTLNGRQTKINGVCMHHDLGCLGAAVNTRAIERHLQILKEMGCNGIRCSHNPPAPELLDLCDRMGFIVMDEAFDMWRKKKTAHDYARYFNEWHERDLNDFILRDRNHPSVFMWSIGNEVLEQWSDAKADTLSLEEANLILNFGHSSEMLAKEGEESVNSLLTKKLVSFVKGLDPTRPVTAGCNEPNSGNHLFRSGVLDVIGYNYHNKDIPNVPANFPDKPFIITESNSALMTRGYYRMPSDRMFIWPKRWDKSFADSTFACSSYENCHVPWGNTHEESLKLVRDNDFISGQYVWTGFDYIGEPTPYGWPARSSYFGIVDLAGFPKDVYYLYQSEWTDKQVLHLFPHWNWTPGQEIDMWCYYNQADEVELFVNGKSQGVKRKDLDNLHVAWRVKFEPGTVKVIARESGKVVAEKEICTAGKPAEIRLTPDRSILTADGKDLCFVTVEVLDEKGNLCPDADNLVNFTVQGNGFIAGVDNGNPVSMERFKDEKRKAFYGKCLVVIQNDGKPGKAKLTATSEGLRQAVLKISAEEL
B6 was tested, and the Km [10] was 87 ± 7.4 µM, the kcat [10] was 4 s⁻¹ and the kcat/Km [10] was 46000 M⁻¹ s⁻¹.

Source: publication PMC4282169
